No end group written: not given here. *: point of attachment. Biotin = O=C1N[C@H]2[C@H](CS[C@H]2CCCCC(=O)*)N1
Biological target: His6-tagged CNA (isoform not told) (UniProt P16298 1-524)
Assay: SPR

Kd: 0.512 µM
Binder: Biotin-AAAMAGFPPEITVTPPTP [biotin-labeled CABIN1-L-1 peptide]

Source: paper PMC9166766 (2022)
